Results: paper PMC9455977, “Deciphering the Regulatory Circuits of RA3 Replication Module - Mechanisms of the Copy Number Control”

Tested on: RepA D76V (plasmid RA3 (IncU, isolated from Aeromonas hydrophila))
Assay: EMSA
Settings: 25 mM Tris-HCl pH 8.0, 5 mM MgCl2, 40 mM NaCl, 0.5 mg/mL BSA, 30 min at 37 C, 20 uL; 30 ng PCR fragment (0.8% agarose) or 150 ng ds oligo (10% native PAGE) …

Substance: repAp 256 bp PCR fragment
- binding signal (fold lower affinity than WT RepA): 5
